The record followed here is patent publication US20020168706A1.

The target in the test is purified RecBCD protein (Plasmid-Safe ExoV, Epicentre) (E. coli) (UniProt P08394). The experiment in a line: cell-based or functional assay.
Chain of UniProt P08394 (P08394 2-1180 limits assumed, chain 1 of 3): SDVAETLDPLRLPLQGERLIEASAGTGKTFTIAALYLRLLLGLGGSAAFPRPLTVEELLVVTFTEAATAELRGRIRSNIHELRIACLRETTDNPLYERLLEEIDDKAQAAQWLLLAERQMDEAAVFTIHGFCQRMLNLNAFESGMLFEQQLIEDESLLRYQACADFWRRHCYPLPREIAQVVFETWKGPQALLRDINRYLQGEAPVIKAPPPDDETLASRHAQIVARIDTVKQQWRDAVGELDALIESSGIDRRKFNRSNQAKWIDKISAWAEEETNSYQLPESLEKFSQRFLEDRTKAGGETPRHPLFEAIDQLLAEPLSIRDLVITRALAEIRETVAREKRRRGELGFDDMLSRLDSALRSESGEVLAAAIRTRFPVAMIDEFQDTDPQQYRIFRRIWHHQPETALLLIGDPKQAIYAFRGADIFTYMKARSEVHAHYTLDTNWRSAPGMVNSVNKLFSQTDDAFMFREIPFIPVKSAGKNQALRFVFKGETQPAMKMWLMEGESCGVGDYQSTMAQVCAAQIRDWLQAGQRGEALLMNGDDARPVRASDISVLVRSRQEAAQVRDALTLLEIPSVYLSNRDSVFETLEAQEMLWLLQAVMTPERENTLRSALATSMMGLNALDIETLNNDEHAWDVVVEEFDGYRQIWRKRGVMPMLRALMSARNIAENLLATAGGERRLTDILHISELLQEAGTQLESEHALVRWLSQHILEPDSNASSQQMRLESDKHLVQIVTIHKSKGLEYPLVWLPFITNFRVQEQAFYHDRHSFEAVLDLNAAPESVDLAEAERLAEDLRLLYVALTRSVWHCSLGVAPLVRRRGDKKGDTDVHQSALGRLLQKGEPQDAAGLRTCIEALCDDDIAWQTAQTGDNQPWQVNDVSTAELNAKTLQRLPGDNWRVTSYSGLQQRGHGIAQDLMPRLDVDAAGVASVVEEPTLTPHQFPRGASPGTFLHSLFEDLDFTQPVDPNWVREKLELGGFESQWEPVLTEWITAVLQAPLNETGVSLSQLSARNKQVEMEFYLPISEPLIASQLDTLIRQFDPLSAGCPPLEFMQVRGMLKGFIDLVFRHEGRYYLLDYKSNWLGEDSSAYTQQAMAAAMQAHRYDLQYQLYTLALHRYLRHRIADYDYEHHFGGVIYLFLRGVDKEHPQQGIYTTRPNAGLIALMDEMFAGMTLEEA
Chain of UniProt P08394 (P07648 whole entry, chain 2 of 3, further chain): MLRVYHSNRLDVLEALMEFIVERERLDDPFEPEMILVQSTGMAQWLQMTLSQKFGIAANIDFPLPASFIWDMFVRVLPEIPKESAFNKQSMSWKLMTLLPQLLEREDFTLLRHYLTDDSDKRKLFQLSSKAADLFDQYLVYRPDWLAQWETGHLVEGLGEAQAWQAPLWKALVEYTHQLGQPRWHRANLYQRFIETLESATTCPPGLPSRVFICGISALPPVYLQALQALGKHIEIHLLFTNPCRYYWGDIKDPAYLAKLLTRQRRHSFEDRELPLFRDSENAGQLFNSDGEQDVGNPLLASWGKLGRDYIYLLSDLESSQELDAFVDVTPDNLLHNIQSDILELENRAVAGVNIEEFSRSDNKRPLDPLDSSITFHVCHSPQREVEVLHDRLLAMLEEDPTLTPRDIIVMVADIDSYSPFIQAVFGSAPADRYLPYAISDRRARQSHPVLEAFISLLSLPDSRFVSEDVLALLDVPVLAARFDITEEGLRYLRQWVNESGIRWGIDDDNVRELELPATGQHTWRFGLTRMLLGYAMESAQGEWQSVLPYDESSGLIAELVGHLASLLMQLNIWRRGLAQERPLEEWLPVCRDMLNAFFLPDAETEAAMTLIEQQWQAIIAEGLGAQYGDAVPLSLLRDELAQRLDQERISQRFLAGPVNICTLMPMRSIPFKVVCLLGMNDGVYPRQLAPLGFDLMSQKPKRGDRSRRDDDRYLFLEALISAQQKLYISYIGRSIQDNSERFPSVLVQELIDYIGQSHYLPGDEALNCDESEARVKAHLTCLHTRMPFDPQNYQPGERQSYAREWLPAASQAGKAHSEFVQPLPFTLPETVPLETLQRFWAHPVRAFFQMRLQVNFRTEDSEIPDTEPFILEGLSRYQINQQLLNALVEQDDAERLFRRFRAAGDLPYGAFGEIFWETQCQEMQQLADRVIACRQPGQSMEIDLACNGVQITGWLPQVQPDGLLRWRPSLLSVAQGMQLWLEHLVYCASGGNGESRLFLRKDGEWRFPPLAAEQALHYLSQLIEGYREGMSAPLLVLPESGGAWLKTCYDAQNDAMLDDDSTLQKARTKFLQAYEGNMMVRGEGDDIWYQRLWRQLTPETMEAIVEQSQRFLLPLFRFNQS
Chain of UniProt P08394 (P04993 whole entry, chain 3 of 3, further chain): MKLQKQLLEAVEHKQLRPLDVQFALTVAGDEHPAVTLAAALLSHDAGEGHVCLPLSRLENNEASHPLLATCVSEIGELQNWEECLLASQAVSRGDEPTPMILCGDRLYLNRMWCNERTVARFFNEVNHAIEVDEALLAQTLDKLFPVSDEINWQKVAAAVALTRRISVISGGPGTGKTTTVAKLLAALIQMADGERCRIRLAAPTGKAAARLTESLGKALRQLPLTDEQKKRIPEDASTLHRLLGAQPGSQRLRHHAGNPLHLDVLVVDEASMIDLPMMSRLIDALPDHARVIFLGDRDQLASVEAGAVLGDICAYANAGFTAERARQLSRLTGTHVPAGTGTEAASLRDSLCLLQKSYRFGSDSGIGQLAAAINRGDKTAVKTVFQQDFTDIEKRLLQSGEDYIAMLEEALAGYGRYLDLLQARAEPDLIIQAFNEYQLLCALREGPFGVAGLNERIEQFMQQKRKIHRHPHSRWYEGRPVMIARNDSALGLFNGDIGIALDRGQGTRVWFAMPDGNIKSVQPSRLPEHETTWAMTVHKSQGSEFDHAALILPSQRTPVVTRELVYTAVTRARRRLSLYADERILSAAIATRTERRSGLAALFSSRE

Turning to “GamS (short form of the bacteriophage lambda Gam protein, expressed from pLDE136, partially purified MonoQ pool) (from UniProt P03702 1-98)”, the specific activity of GamS in the Gam-mediated RecBCD inhibition assay lay within 160 to 200 U/µg.
